Laboratory results as given in patent publication US20250250355A1.

Target: human SIRPα-isoform 2-his protein (human)
Assay: indirect ELISA on coated human SIRPα-isoform 2-his, OD(450-630); negative control, curve not visible in the scan

human SIRPα-isoform 2-his protein (human), sequence (chain, as listed by the source limits assumed): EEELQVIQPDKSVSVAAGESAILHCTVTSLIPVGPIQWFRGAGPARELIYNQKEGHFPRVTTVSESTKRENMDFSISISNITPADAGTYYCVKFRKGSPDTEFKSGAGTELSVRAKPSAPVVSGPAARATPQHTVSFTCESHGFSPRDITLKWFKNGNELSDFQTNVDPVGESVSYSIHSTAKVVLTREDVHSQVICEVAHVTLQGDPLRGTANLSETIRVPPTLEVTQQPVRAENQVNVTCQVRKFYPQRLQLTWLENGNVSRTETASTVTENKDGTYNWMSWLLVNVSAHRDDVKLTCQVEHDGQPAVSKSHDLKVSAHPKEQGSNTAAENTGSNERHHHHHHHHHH

Substance: hIgG (antibody)
- EC50: 18.8 nM
